Laboratory results published in patent US20210017293 (published 2021).
Like-named read-outs stand apart in the source and are kept apart here.

What was measured:
human TNFR1 [1] = target: T1, human TNFR1 (human, UniProt P19438); test: ELISA
T1 chain: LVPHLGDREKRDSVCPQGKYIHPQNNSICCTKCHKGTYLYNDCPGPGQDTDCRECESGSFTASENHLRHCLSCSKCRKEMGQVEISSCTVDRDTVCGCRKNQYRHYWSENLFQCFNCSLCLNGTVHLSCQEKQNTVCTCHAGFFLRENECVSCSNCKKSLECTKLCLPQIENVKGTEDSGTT

human TNFR1 [2] = target: T1, human TNFR1; test: ELISA
human TNFR1 [3] = target: T1, human TNFR1; test: SPR
human TNFR1 [4] = target: T1, human TNFR1; test: ELISA
DMS30038-R (DMS30051) = DMS30038-R (DMS30051) (human); test: SPR 37C

Binder	EC50 (human TNFR1 [2])	EC50 (human TNFR1 [4])	further results
DOM1H-131-206 P14A + C-terminal ASTKG (antibody, V domains shown) VH: EVQLLESGGGLVQAGGSLRLSCAASGFTFAHETMVWVRQAPGKGLEWVSHIPPDGQDPFYADSVKGRFTISRDNSKNTLYLQMNSLRAEDTAVYHCALLPKRGPWFDYWGQGTLVTVSS	1470 pM	–	EC50 (human TNFR1 [1]): 4640 pM
DOM1H-131-206 C-terminal A (antibody, V domains shown) VH: EVQLLESGGGLVQPGGSLRLSCAASGFTFAHETMVWVRQAPGKGLEWVSHIPPDGQDPFYADSVKGRFTISRDNSKNTLYLQMNSLRAEDTAVYHCALLPKRGPWFDYWGQGTLVTVSS	–	1210 pM	Kd (human TNFR1 [3]): 25.3 pM; EC50 (human TNFR1 [1]): 2710 pM
DOM1H-131-206 C-terminal ASTKG (antibody, V domains shown) VH: EVQLLESGGGLVQPGGSLRLSCAASGFTFAHETMVWVRQAPGKGLEWVSHIPPDGQDPFYADSVKGRFTISRDNSKNTLYLQMNSLRAEDTAVYHCALLPKRGPWFDYWGQGTLVTVSS	–	1110 pM	EC50 (human TNFR1 [1]): 1900 pM
DOM1H-131-206 C-terminal AST (antibody, V domains shown) VH: EVQLLESGGGLVQPGGSLRLSCAASGFTFAHETMVWVRQAPGKGLEWVSHIPPDGQDPFYADSVKGRFTISRDNSKNTLYLQMNSLRAEDTAVYHCALLPKRGPWFDYWGQGTLVTVSS	1990 pM	–	–
DOM1H-131-206 C-terminal ASTK (antibody, V domains shown) VH: EVQLLESGGGLVQPGGSLRLSCAASGFTFAHETMVWVRQAPGKGLEWVSHIPPDGQDPFYADSVKGRFTISRDNSKNTLYLQMNSLRAEDTAVYHCALLPKRGPWFDYWGQGTLVTVSS	–	1590 pM	–
DOM1H-131-206 P14A + C-terminal A (antibody, V domains shown) VH: EVQLLESGGGLVQAGGSLRLSCAASGFTFAHETMVWVRQAPGKGLEWVSHIPPDGQDPFYADSVKGRFTISRDNSKNTLYLQMNSLRAEDTAVYHCALLPKRGPWFDYWGQGTLVTVSS	570 pM	–	EC50 (human TNFR1 [1]): 2220 pM
DOM1H-131-206 P14A, G44E (antibody, V domains shown) VH: EVQLLESGGGLVQAGGSLRLSCAASGFTFAHETMVWVRQAPGKELEWVSHIPPDGQDPFYADSVKGRFTISRDNSKNTLYLQMNSLRAEDTAVYHCALLPKRGPWFDYWGQGTLVTVSS	–	2030 pM	–
DOM1H-131-206 (antibody, V domains shown) VH: EVQLLESGGGLVQPGGSLRLSCAASGFTFAHETMVWVRQAPGKGLEWVSHIPPDGQDPFYADSVKGRFTISRDNSKNTLYLQMNSLRAEDTAVYHCALLPKRGPWFDYWGQGTLVTVSS	670 pM	1990 pM	Kd (human TNFR1 [3]): 14.3 pM; EC50 (human TNFR1 [1]): 1970 pM
DOM1H-131-206 K43A (antibody, V domains shown) VH: EVQLLESGGGLVQPGGSLRLSCAASGFTFAHETMVWVRQAPGAGLEWVSHIPPDGQDPFYADSVKGRFTISRDNSKNTLYLQMNSLRAEDTAVYHCALLPKRGPWFDYWGQGTLVTVSS	–	670 pM	–
DOM1H-131-206 C-terminal S deletion (antibody, V domains shown) VH: EVQLLESGGGLVQPGGSLRLSCAASGFTFAHETMVWVRQAPGKGLEWVSHIPPDGQDPFYADSVKGRFTISRDNSKNTLYLQMNSLRAEDTAVYHCALLPKRGPWFDYWGQGTLVTVS	500 pM	–	–
VEGF165 (protein) APMAEGGGQNHHEVVKFMDVYQRSYCHPIETLVDIFQEYPDEIEYIFKPSCVPLMRCGGCCNDEGLECVPTEESNITMQIMRIKPHQGQHIGEMSFLQHNKCECRPKKDRARQENPCGPCSERRKHLFVQDPQTCKCSCKNTDSRCKARQLELNERTCRCDKPRR	–	–	Kd (DMS30038-R (DMS30051)): 0.00431 pM
DOM1H-131-206 L11A (antibody, V domains shown) VH: EVQLLESGGGAVQPGGSLRLSCAASGFTFAHETMVWVRQAPGKGLEWVSHIPPDGQDPFYADSVKGRFTISRDNSKNTLYLQMNSLRAEDTAVYHCALLPKRGPWFDYWGQGTLVTVSS	510 pM	–	–
DOM1H-131-206 C-terminal ASTKGP (antibody, V domains shown) VH: EVQLLESGGGLVQPGGSLRLSCAASGFTFAHETMVWVRQAPGKGLEWVSHIPPDGQDPFYADSVKGRFTISRDNSKNTLYLQMNSLRAEDTAVYHCALLPKRGPWFDYWGQGTLVTVSS	–	11900 pM	–
DOM1H-131-206 G44E (antibody, V domains shown) VH: EVQLLESGGGLVQPGGSLRLSCAASGFTFAHETMVWVRQAPGKELEWVSHIPPDGQDPFYADSVKGRFTISRDNSKNTLYLQMNSLRAEDTAVYHCALLPKRGPWFDYWGQGTLVTVSS	–	860 pM	–
DOM1H-131-206 P14A (antibody, V domains shown) VH: EVQLLESGGGLVQAGGSLRLSCAASGFTFAHETMVWVRQAPGKGLEWVSHIPPDGQDPFYADSVKGRFTISRDNSKNTLYLQMNSLRAEDTAVYHCALLPKRGPWFDYWGQGTLVTVSS	–	1220 pM	–

Further lines, with some results ahead:

EC50 (human TNFR1 [2])	EC50 (human TNFR1 [4])	Binder	further results
720 pM	–	DOM1H-131-206 P14K (antibody, V domains shown) VH: EVQLLESGGGLVQKGGSLRLSCAASGFTFAHETMVWVRQAPGKGLEWVSHIPPDGQDPFYADSVKGRFTISRDNSKNTLYLQMNSLRAEDTAVYHCALLPKRGPWFDYWGQGTLVTVSS	–
–	1750 pM	DOM1H-131-206 Q13A (antibody, V domains shown) VH: EVQLLESGGGLVAPGGSLRLSCAASGFTFAHETMVWVRQAPGKGLEWVSHIPPDGQDPFYADSVKGRFTISRDNSKNTLYLQMNSLRAEDTAVYHCALLPKRGPWFDYWGQGTLVTVSS	–
460 pM	–	DOM1H-131-206 P14Q + C-terminal A (antibody, V domains shown) VH: EVQLLESGGGLVQQGGSLRLSCAASGFTFAHETMVWVRQAPGKGLEWVSHIPPDGQDPFYADSVKGRFTISRDNSKNTLYLQMNSLRAEDTAVYHCALLPKRGPWFDYWGQGTLVTVSS	–
770 pM	–	DOM1H-131-206 P14T (antibody, V domains shown) VH: EVQLLESGGGLVQTGGSLRLSCAASGFTFAHETMVWVRQAPGKGLEWVSHIPPDGQDPFYADSVKGRFTISRDNSKNTLYLQMNSLRAEDTAVYHCALLPKRGPWFDYWGQGTLVTVSS	–
640 pM	–	DOM1H-131-206 P14E (antibody, V domains shown) VH: EVQLLESGGGLVQEGGSLRLSCAASGFTFAHETMVWVRQAPGKGLEWVSHIPPDGQDPFYADSVKGRFTISRDNSKNTLYLQMNSLRAEDTAVYHCALLPKRGPWFDYWGQGTLVTVSS	–
1100 pM	–	DOM1H-131-206 P14Q + C-terminal ASTKG (antibody, V domains shown) VH: EVQLLESGGGLVQQGGSLRLSCAASGFTFAHETMVWVRQAPGKGLEWVSHIPPDGQDPFYADSVKGRFTISRDNSKNTLYLQMNSLRAEDTAVYHCALLPKRGPWFDYWGQGTLVTVSS	–
460 pM	–	DOM1H-131-206 P14K + C-terminal A (antibody, V domains shown) VH: EVQLLESGGGLVQKGGSLRLSCAASGFTFAHETMVWVRQAPGKGLEWVSHIPPDGQDPFYADSVKGRFTISRDNSKNTLYLQMNSLRAEDTAVYHCALLPKRGPWFDYWGQGTLVTVSS	–
720 pM	–	DOM1H-131-206 P14T + C-terminal ASTKG (antibody, V domains shown) VH: EVQLLESGGGLVQTGGSLRLSCAASGFTFAHETMVWVRQAPGKGLEWVSHIPPDGQDPFYADSVKGRFTISRDNSKNTLYLQMNSLRAEDTAVYHCALLPKRGPWFDYWGQGTLVTVSS	–
480 pM	–	DOM1H-131-206 P14K + C-terminal ASTKG (antibody, V domains shown) VH: EVQLLESGGGLVQKGGSLRLSCAASGFTFAHETMVWVRQAPGKGLEWVSHIPPDGQDPFYADSVKGRFTISRDNSKNTLYLQMNSLRAEDTAVYHCALLPKRGPWFDYWGQGTLVTVSS	–
660 pM	–	DOM1H-131-206 P14T + C-terminal A (antibody, V domains shown) VH: EVQLLESGGGLVQTGGSLRLSCAASGFTFAHETMVWVRQAPGKGLEWVSHIPPDGQDPFYADSVKGRFTISRDNSKNTLYLQMNSLRAEDTAVYHCALLPKRGPWFDYWGQGTLVTVSS	–
910 pM	–	DOM1H-131-206 P14Q (antibody, V domains shown) VH: EVQLLESGGGLVQQGGSLRLSCAASGFTFAHETMVWVRQAPGKGLEWVSHIPPDGQDPFYADSVKGRFTISRDNSKNTLYLQMNSLRAEDTAVYHCALLPKRGPWFDYWGQGTLVTVSS	–
–	590 pM	DOM1H-131-206 P41A (antibody, V domains shown) VH: EVQLLESGGGLVQPGGSLRLSCAASGFTFAHETMVWVRQAAGKGLEWVSHIPPDGQDPFYADSVKGRFTISRDNSKNTLYLQMNSLRAEDTAVYHCALLPKRGPWFDYWGQGTLVTVSS	–
